Experiment [1] concerns the target cyclic peptide CP9. As to the kind of experiment: SPR. The settings on record: both partners purified.
The target in experiment [2] is cyclic peptide CP10. As to the kind of experiment: SPR. The settings on record: both partners purified.

One may read the koff as the first-order rate constant of dissociation. The low end stands for slow dissociation, the high end for fast dissociation. As a reminder, the kon is the rate constant with which the complex forms. Low values mean slower complex formation, high ones faster complex formation.

B1: hemagglutinin (HA) ectodomain of A/New Caledonia/20/1999 (H1N1) (domain or fragment)
chain: not shown
modifications: biotin on the BirA site
In experiment [1], B1 came in with an off-rate constant (koff) of 0.351 s⁻¹ and a kon of 108000 M⁻¹ s⁻¹. For the same molecule, in experiment [2], the koff is 0.378 s⁻¹ and the on-rate (kon) was 50300 M⁻¹ s⁻¹.
